Results on seven substances are retold here after US20120134993A1.

The target of test [1] is recombinant human FGF-8b (human) (UniProt P55075). Nature of the test: cell-based or functional assay.
Another test concerns the target human VEGF-A (human) (UniProt P15692). Nature of the test: SPR (Biacore T100), VEGF-A immobilized, 100 nM VEGFR-2-Fc5 injected, 1:1 dissociation fit.
The target of a further test is human FGF-9 (human) (UniProt P31371). Nature of the test: cell-based or functional assay.
The target of test [2] is recombinant human FGF1 (human) (UniProt P05230). Nature of the test: cell-based or functional assay.
The target of test [3] is recombinant human FGF2 (human) (UniProt P09038). Nature of the test: cell-based or functional assay.
Test [4] addresses recombinant human FGF4 (human) (UniProt P08620). Nature of the test: cell-based or functional assay.
Test [5] deals with recombinant human FGF6 (human) (UniProt P10767). The test is described as follows: cell-based or functional assay.
Test [6] addresses recombinant human FGF-17 (human) (UniProt O60258). The test is described as follows: direct binding ELISA, FGF-17 coated, FGFR-Fc titrated with heparin, anti-human Fc-HRP.
Test [7] addresses recombinant human FGF-8b (human) (UniProt P55075). Nature of the test: direct binding ELISA, FGF-8b coated, FGFR-Fc titrated with heparin, anti-human Fc-HRP.

recombinant human FGF6 (human), sequence (P10767 83-208 limits assumed): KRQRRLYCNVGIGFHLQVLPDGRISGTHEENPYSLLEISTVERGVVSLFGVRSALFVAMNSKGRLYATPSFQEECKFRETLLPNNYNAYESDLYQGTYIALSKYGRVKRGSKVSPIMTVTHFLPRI
recombinant human FGF1 (human), sequence (P05230 16-155 limits assumed): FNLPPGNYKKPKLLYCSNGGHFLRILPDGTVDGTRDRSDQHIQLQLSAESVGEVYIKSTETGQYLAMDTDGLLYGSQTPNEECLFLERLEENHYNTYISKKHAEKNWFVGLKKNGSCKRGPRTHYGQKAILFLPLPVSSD
recombinant human FGF-8b (human), sequence (P55075 other isoform, or with tags, fused parts or gaps limits assumed): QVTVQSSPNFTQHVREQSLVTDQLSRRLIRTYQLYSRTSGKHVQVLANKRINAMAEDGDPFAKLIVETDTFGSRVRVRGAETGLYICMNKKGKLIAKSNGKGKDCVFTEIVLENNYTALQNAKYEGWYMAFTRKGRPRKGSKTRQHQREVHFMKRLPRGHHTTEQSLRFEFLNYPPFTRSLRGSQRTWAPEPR
recombinant human FGF4 (human), sequence (P08620 31-206 limits assumed): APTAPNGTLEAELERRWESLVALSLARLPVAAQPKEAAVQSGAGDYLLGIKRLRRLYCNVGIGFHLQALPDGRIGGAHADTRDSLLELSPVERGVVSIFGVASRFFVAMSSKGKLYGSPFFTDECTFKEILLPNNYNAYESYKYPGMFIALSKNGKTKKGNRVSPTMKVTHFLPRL
recombinant human FGF2 (human), sequence (P09038 143-288 limits assumed): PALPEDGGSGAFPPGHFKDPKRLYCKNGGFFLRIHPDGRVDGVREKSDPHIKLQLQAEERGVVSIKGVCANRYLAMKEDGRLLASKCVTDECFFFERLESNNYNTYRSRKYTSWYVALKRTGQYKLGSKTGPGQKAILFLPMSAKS
human VEGF-A (human), sequence (P15692 other isoform, or with tags, fused parts or gaps limits assumed): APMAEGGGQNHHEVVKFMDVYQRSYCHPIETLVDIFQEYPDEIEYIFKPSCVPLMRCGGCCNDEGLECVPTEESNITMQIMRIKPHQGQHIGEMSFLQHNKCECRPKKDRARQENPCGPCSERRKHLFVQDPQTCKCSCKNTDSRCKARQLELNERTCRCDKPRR
human FGFR1-Fc (R&D Systems), sequence (P11362 22-376): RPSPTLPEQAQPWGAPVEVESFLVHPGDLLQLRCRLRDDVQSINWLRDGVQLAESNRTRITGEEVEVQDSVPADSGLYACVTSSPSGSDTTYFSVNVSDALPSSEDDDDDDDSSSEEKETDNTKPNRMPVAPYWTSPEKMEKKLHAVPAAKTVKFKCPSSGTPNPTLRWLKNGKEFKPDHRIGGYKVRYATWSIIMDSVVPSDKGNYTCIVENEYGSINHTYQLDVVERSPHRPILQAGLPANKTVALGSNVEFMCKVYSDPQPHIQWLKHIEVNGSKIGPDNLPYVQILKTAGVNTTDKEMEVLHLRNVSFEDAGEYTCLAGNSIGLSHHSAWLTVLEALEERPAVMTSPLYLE
recombinant human FGF-17 (human), sequence (O60258 23-216 limits assumed): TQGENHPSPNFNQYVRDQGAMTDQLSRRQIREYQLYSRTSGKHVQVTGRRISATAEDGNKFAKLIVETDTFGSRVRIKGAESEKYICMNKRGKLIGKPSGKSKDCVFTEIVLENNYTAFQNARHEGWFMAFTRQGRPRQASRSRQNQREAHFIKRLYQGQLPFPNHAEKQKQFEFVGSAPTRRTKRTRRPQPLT

Regarding “FGFR2alphaIIIc(145-377) Fc5, truncated FGFR2-Fc (A2559F) (Fc fusion)”, the Proliferation IC50, FGF8b-stimulated LNCap cells (3H-thymidine) in test [1] turned out to be 0.3 nM.

As for “FGFR2alphaIIIc(145-377)(P253R) Fc5, truncated FGFR2-Fc P253R (A2561F) (Fc fusion)”, the Proliferation IC50, FGF8b-stimulated LNCap cells (3H-thymidine) in [1] was determined as 0.01 nM.

“FGFR2alphaIIIc(145-377)(S252W) Fc5, truncated FGFR2-Fc S252W (A2560F) (Fc fusion)”: the Proliferation IC50, FGF8b-stimulated LNCap cells (3H-thymidine) in test [1] turned out to be 0.01 nM.

The substance “VEGFR-2-Fc5 (from UniProt P0DOX5 218-449) (Fc fusion)” gave a koff with human VEGF-A (human) of 0.0002 s⁻¹.

For “human FGFR1-Fc (R&D Systems) (from UniProt P11362 22-376) (Fc fusion)”, in the test with human FGF-9 (human), the Proliferation IC50, FGF-9-stimulated HCO osteoblasts (3H-thymidine) was 1.1 nM. For the same substance, the IC50, FGF-stimulated HUVEC proliferation (3H-thymidine) in [2] was found to be 0.63 nM; in test [3], 0.92 nM; in [4] it was 0.53 nM; in test [5], 0.42 nM.

In the case of “human FGFR2-Fc (R&D Systems) (from UniProt P21802 22-377) (Fc fusion)”, in the test with human FGF-9 (human), the Proliferation IC50, FGF-9-stimulated HCO osteoblasts (3H-thymidine) worked out at 0.49 nM. The Proliferation IC50, FGF8b-stimulated LNCap cells (3H-thymidine) in test [1] turned out to be 0.29 nM. In addition, the IC50, FGF-stimulated HUVEC proliferation (3H-thymidine) in [2] worked out at 0.42 nM; in test [3] it was 0.85 nM; in test [4] it was 0.48 nM; in test [5], 0.3 nM.

In turn, “human FGFR3-Fc (R&D Systems) (from UniProt P22607 23-375) (Fc fusion)” had a Proliferation IC50, FGF-9-stimulated HCO osteoblasts (3H-thymidine) in the test with human FGF-9 (human) of 0.44 nM. The Proliferation IC50, FGF8b-stimulated LNCap cells (3H-thymidine) in [1] was 0.79 nM. The IC50, FGF-stimulated HUVEC proliferation (3H-thymidine) was 0.53 nM in test [2], 5.5 nM in [3], 1.06 nM in test [4] and 9.96 nM in [5]. The IC50 turned out to be 30.1 nM in [6] and 23.4 nM in test [7].
